In article PMC9271190:
Read-outs that look alike come from different tables or passages of the source.

T1: HERV-K reverse transcriptase (RT) (Human endogenous retrovirus K (Homo …, UniProt V9H0F6 1-596))
T1 sequence: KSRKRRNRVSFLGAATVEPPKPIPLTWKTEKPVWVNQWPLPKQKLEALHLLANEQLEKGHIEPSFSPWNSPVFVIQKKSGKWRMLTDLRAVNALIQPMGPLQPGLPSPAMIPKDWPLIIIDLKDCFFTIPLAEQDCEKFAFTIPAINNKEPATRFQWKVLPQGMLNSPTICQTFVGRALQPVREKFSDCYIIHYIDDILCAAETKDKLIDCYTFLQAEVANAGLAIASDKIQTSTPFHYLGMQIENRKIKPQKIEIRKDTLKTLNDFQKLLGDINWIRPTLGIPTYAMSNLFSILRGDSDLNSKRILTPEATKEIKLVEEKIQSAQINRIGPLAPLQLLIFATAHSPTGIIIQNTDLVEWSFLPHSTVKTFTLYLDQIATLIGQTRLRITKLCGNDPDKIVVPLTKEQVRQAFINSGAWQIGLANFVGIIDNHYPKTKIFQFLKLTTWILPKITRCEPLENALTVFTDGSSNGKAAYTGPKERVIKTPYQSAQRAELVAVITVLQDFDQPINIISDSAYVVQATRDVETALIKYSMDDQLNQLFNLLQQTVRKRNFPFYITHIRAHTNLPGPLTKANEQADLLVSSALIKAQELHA


Experiments:
[1] = target: T1, HERV-K reverse transcriptase (RT); assay: X-ray crystallography
[2] = target: T1, HERV-K reverse transcriptase (RT); assay: X-ray crystallography; remark: listed apart in the source

Binder | binding result [1] | binding result [2]
U5-PBS DNA template/primer, unextended (primer ends in G) (dsDNA) DNA 1: GGGACCTGAAAGCGAAAGGGAAAC DNA 2: GTTTCCCTTTCGCTTTCAGG | binds | 
U5-PBS DNA template/primer extended by ddT (dsDNA, primer 3'-terminal 2',3'-dideoxy-T (incorporated from ddTTP)) DNA 1: GGGACCTGAAAGCGAAAGGGAAAC DNA 2: GTTTCCCTTTCGCTTTCAGGT |  | binds
